From US12565520B2, “Chemically-stabilized allosteric modulators of leucine-rich repeat kinase 2 (LRRK2)” (UNIVERSITY OF GEORGIA RESEARCH FOUNDATION, INC., priority 2020, dated 2026) come the findings set out here.

Experiment [1] deals with T1, MBP-tagged RocCOR LRRK2 protein (human, UniProt Q5S007 1293-1840, limits assumed).
T1 construct: domain: RocCOR; Purified from E. coli; FP done in the presence of GTP and MgCl2; also called His6-MBP-tagged RocCOR; not shown: N-terminal His6-MBP tag
T1 sequence (looked up): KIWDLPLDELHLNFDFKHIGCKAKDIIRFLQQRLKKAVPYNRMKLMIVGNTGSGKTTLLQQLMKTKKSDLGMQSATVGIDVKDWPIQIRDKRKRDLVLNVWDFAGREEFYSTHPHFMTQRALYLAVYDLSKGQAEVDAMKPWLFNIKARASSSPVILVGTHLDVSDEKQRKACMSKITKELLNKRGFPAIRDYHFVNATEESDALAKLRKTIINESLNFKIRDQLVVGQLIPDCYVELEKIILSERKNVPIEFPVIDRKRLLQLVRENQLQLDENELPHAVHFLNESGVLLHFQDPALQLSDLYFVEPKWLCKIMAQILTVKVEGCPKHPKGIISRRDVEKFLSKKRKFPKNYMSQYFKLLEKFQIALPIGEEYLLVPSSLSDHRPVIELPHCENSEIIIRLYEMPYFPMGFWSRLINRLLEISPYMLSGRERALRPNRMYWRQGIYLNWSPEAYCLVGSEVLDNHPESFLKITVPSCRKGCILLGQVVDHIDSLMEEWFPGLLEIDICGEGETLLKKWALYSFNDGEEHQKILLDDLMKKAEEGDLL
As to the kind of experiment: fluorescence polarization, 10 nM FAM-labeled peptide.

The target in experiment [2] is T2, MBP-tagged CORB (human, UniProt Q5S007 1672-1840).
T2 construct: range 1672-1840; Purified from E. coli BL21(DE3); also called C-terminal part of the COR domain; His6-MBP-tagged COR-B; not shown: N-terminal His6-MBP tag (pDEST-566)
The description is as above.

Experiment [3] deals with T2, MBP-tagged CORB. Briefly: fluorescence polarization, 10 nM FAM-labeled peptide, MBP-CORB titrated. As for the experimental part: Fluorescence Polarization (FP) Assays. […] Each FAM-labeled peptide was plated at a final in-well concentration of 10 nM in 384-well microtiter plates. 1:2 dilutions of the protein were then performed from a concentration range of 5 μM to 1 nM. For each peptide: protein interaction, a range of at least 10 protein concentrations was examined, and each concentration was performed in triplicate. The assay was performed in FP buffer (20 mM MOPS pH 7, 150 mM NaCl, and 0.005% CHAPS) at room temperature. The peptide:protein mixture was incubated at room temperature for 2 hours with readings taken every 30 minutes. The final readings were obtained at 2 hours.
The binding affinities of these two peptides towards LRRK2 was measured using fluorescence polarization (FP). Two MBP-tagged protein constructs, CORB and RocCOR, were purified and plated in concentrations ranging from 5 μM to 1 nM along with 10 nM FAM-labeled peptide, 2 mM GTP and 10 mM MgCl_2.

Positions of bridges follow the written chain, without caps; N, C: chain ends. Non-standard residues stand in square brackets, D forms with d. Primed or numbered codes have the meaning given here. PEG3″ = N-terminal PEG3 linker; FAM″ = 5,6-carboxyfluorescein; S5 = C=CCCC[C@](C)(N)C(=O)O; Nle = CCCC[C@H](N)C(=O)O

B1: FAM-labeled LRIP4 scramble (peptide)
peptide: {FAM″-PEG3″}-Q[Nle]DKAESKNKERKLC[S5]TIK[S5]-NH2
modifications: staple 16-20
notes: Scrambled control of LRIP4; also called scrambled peptide control
Turning to B1, the binding result in experiment [1] was “no binding (tested: protein 5 µM to 1 nM)”.

B2: FAM-labeled LCIP1 scramble (peptide)
peptide: {FAM″-PEG3″}-GKWEK[S5]GEL[S5]KL-NH2
modifications: staple 6-10
notes: Scrambled control of LCIP1; also called scrambled peptide control
Turning to B2, the binding result with MBP-tagged CORB [2] is “no binding (tested: protein 5 µM to 1 nM)”.

On to {FAM″-PEG3″}-KGEGE[S5]LLK[S5]WK-NH2 (staple 6-10, 16) [FAM-labeled LCIP1], for which the Kd with MBP-tagged CORB [3] amounted to 1000 nM.
